Our source for the phagocytosis of DiI-labelled A20 tumor cells by bone marrow-derived macrophages values is US20260007703A1.

In the experiment the target is CD47 on A20 murine lymphoma cells (mouse) (UniProt Q61735). The experiment in a line: cell-based or functional assay.
UniProt Q61735, sequence (Q61735 19-303): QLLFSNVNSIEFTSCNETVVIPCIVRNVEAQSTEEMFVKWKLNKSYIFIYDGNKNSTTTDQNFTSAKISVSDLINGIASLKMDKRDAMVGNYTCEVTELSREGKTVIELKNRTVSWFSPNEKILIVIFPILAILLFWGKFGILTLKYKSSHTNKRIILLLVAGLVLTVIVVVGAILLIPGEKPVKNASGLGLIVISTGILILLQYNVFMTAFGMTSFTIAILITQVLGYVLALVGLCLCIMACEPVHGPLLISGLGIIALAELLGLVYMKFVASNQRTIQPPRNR

The substance “FITC-labeled anti-mouse CD47 monoclonal antibody, clone miap301” displayed a phagocytosis of DiI-labelled A20 tumor cells by bone marrow-derived macrophages of 60 % increase.
